# Results: patent US20030026800A1
# Key:
# [1] = molecular target: antigen of Daudi B lymphoblastoid cells to which the mAbs of the invention bind; assay: FACS double labelling, peripheral blood lymphocytes of healthy individuals
# [2] = molecular target: antigen of Daudi B lymphoblastoid cells to which the mAbs of the invention bind; assay: FACS double labelling, peripheral blood lymphocytes of breast carcinoma patients
# [3] = molecular target: antigen of Daudi B lymphoblastoid cells to which the mAbs of the invention bind; assay: FACS double labelling, peripheral blood lymphocytes of prostate carcinoma patients
# [4] = molecular target: antigen of Daudi B lymphoblastoid cells to which the mAbs of the invention bind; assay: FACS double labelling, peripheral blood lymphocytes of colon carcinoma patients
binder,measurement,setting,value
"mouse BAT antibody (antibody, V domains shown) VH: QIQLVQSGPELKKPGETVKISCKASGYTFTNYGMNWVKQAPGKGLKWMGWINTDSGESTYAEEFKGRFAFSLETSANTAYLQINNLNNEDTATYFCVRVGYDALDYWGQGTSVTVSS VL: QIVLTQSPAIMSASPGEKVTITCSARSSVSYMHWFQQKPGTSPKLWIYRTSNLASGVPARFSGSGSGTSYCLTISRMEAEDAATYYCQQRSSFPLTFGSGTKLEIK",percent of CD3+ BAT+ cells (of total CD3+ cells),[1],25%
same,percent of CD3+ BAT+ cells (of total CD3+ cells),[2],10%
same,percent of CD3+ BAT+ cells (of total CD3+ cells),[3],50%
same,percent of CD3+ BAT+ cells (of total CD3+ cells),[4],7%
